The text below walks through data of US20240002497A1 (Merck Sharp & Dohme, published 2024).

For assay [1], the target named is T1, rhNav1.7α + β1-β2-β3 (rhesus monkey).
T1 construct: also called rhNav1.7-beta1-beta2-beta3; rhesus Nav1.7α
Put plainly: binding FACS, CHO FlpIn cells. On the procedure: (§1) Binding of the ISVDs to cell-expressed Nav1.7α was detected via murine anti-Flag (Sigma, catalog #F1804). Briefly, cells were resuspended in FACS buffer (PBS, 10% FBS, NaN₃) and transferred to a 96-well V-bottom plate at 1×10^5 cells/well. Purified FLAG3-tagged ISVD was diluted in FACS buffer and added to the cells for 30 minutes at 4° C. […] Prior to the read-out, the samples were resuspended in 1 μg/mL propidium iodide (Sigma, catalog #P4170) to exclude dead cells. Between each step, the cells were centrifuged for 5 minutes at 200 grams and washed with 100 μL/well FACS buffer.

The target of assay [2] is T2, huNav1.7α + β1-β2-β3 (human, UniProt Q15858 1-1988; A5A6L6 19-218; O60939 30-215; Q2KI11 23-215).
T2 construct: Cell line (CHO FlpIn, HEK FlpIn, transient HEK293T) is named under assay; also called huNav1.7-beta1-beta2-beta3; human Nav1.7α with Navβ1, Navβ2 and Navβ3
As to the kind of experiment: binding FACS, CHO FlpIn cells. As for the experimental part: as §1

B1: F010302338 (VHH)
VHH: EVQLVESGGGVVQPGGSLRLSCAASHRAFIRDVFTGWYRRAPGKQRELVARIYESGNTQYADSAKGRFTISRDNAKKTVYLQMNSLRPEDTALYYCLFSGTISTGREYRSGDYWGQGTLVTVSS
Regarding B1, in assay [1], the Bmax was found to be 100% and the EC50 came to 7.9 nM. For the same molecule, in assay [2], the Bmax stood at 100% and the EC50 came to 3.4 nM.

B2: F010302342 (VHH)
VHH: EVQLVESGGGVVQPGGSLRLSCAASSRQFIRDVFTGWYRQAPGKQRELVARIYNEGNTQYADSAKGRFTISRDNAKKTVYLQMNSLRPEDTALYYCLFSGTISTGREYRSGDYWGQGTLVTVSS
As for B2, in assay [1], the Bmax turned out to be 61% and the EC50 was 16 nM. For the same molecule, in assay [2], the Bmax worked out at 100% and the EC50 worked out at 4 nM.

B3: F010302347 (VHH)
VHH: EVQLVESGGGVVQPGGSLRLSCAASHRAFIRDVFTGWYRQAPGKQRELVARIYEGGNTQYADSAKGRFTISRDNAKKTVYLQMNSLRPEDTALYYCLFSGTISTGREYRSGDYWGQGTLVTVSS
For the molecule B3, in assay [1], the Bmax was found to be 100% and the EC50 stood at 9.6 nM. Moreover, in assay [2], the Bmax turned out to be 100% and the EC50 amounted to 4.6 nM.

B4: F010302341 (VHH)
VHH: EVQLVESGGGVVQPGGSLRLSCAASSRQFIRDVFTGWYRQAPGKQRELVARIYNEGNTNYADSAKGRFTISRDNAKKTVYLQMNSLRPEDTALYYCLFSGTISTGREYRSGDYWGQGTLVTVSS
B4: in assay [1], the binding result is reported as “no binding”. In assay [2], the Bmax stood at 100% and the EC50 is 5.3 nM.

B5: F010302340 (VHH)
VHH: EVQLVESGGGVVQPGGSLRLSCAASHRAFIRDLFTGWYRRAPGKQRELVARIYESGNTNYADSAKGRFTISRDNAKKTVYLQMNSLRPEDTALYYCLFSGTISTGREYRSGDYWGQGTLVTVSS
Turning to B5, the results for the Bmax in assay [1] and in assay [2] were 96% and 100%, respectively. For the same molecule, the EC50 turned out to be 13 nM in assay [1] and 4.6 nM in assay [2].

B6: F010302346 (VHH)
VHH: EVQLVESGGGVVQPGGSLRLSCAASHRAFIRDVFTGWYRQAPGKQRELVARIYESGNTQYADSAKGRFTISRDNAKKTVYLQMNSLRPEDTALYYCLFSGTISTGREYRSGDYWGQGTLVTVSS
For B6, in assay [1], the Bmax was 99% and the EC50 came out at 12 nM. Besides, in assay [2], the Bmax stood at 100% and the EC50 came to 5 nM.

B7: F010302343 (VHH)
VHH: EVQLVESGGGVVQPGGSLRLSCAASSRQFIRDVFTGWYRQAPGKQRELVARIYESGNTQYADSAKGRFTISRDNAKKTVYLQMNSLRPEDTALYYCLFSGTISTGREYRSGDYWGQGTLVTVSS
Turning to B7, in assay [1], the Bmax is 84% and the EC50 was determined as 18 nM. In assay [2], the Bmax was determined as 100% and the EC50 amounted to 6.4 nM.

B8: F010302339 (VHH)
VHH: EVQLVESGGGVVQPGGSLRLSCAASHRAFIRDVFTGWYRRAPGKQRELVARIYEGGNTQYADSAKGRFTISRDNAKKTVYLQMNSLRPEDTALYYCLFSGTISTGREYRSGDYWGQGTLVTVSS
B8: in assay [1], the Bmax was 100% and the EC50 is 6.8 nM. Also, in assay [2], the Bmax was determined as 100% and the EC50 is 4.3 nM.

B9: F010302344 (VHH)
VHH: EVQLVESGGGVVQPGGSLRLSCAASHRQFIRDVFTGWYRQAPGKQRELVARIYNEGNTQYADSAKGRFTISRDNAKKTVYLQMNSLRPEDTALYYCLFSGTISTGREYRSGDYWGQGTLVTVSS
In the case of B9, in assay [1], the Bmax came out at 78% and the EC50 amounted to 13 nM. In assay [2], the Bmax was determined as 100% and the EC50 was 4.3 nM.
